Assay results taken from the nanobody polyreactivity screen of Harvey et al. (2022).

Assay: yeast display, Sf9 membrane polyspecificity reagent, FACS + sequencing; frameworks hold sequencing errors
In short: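 Using colony PCR, genes from sorted yeast display clones were amplified, then sequenced on MiSeq at 2 × 250 and filtered by CDR length. The clones had been stained with 10% biotinylated, detergent-solubilized Sf9 membrane reagent for 1 hour at 4 °C and sorted by FACS into low and high (top ~1%) gates on anti-HA and streptavidin fluorescence. Polyreactivity labels come from the gate of origin.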

Row | Sequence | polyreactivity (PSR sort gate)
1 | QVQLEESGGGLVQAGGSLRLSCAASGSTFSGYAMGWYIPAPGKERELVATIRRGGSTYADSVKGRFTISRDNAKNTVYLQMNSLKPEDTAVYYCAADAYVSSQPMDYWGQGTQVTVSS | high polyreactivity
2 | QVPLVESGGGLVQAGGSLRLSCAASGFIFSSNARGWYRQAPGKERELVARITWSDGSTYYADSVKGRFTISRDNAKKTVYLQMNSLKPEDTAVYYCAKGRDATHYEYYLYSMDYWGQGTQVTVSS | low polyreactivity
3 | QVQLVESGGGLVQAGGSLRLSCAASGRIFDPYAMGWYRQAPGKERELVASNSWSGGRTYYADSVKGRFTISRDNAKNTVYLQMNSLKPEDTAVYYCAKVRAYTRLGLTVSMDYWGQGTQVTVSS | high polyreactivity
4 | QVQLVESAGGLVQAGGSLRLSCAASGSTFYRYAMGGSRQAPGKERELVAAISSSGGRTYYADSVKGRFTISRDNAKNTVYLQMNSLKPEDTAVYFCATRVGDFHRGKRKRYEYWGQGTQVTVSS | high polyreactivity
5 | QVQLVESGGGLVQAGGSLRLSCAASGRIFRYYDMAWYTQAPGKEREFVAAITRSGAITYYADSVKGRFTKSRDNAKNTVYLQMNSLKPEDTAVYYCAARYWAKFGYWGQGTQVTVSS | low polyreactivity
6 | QVQLVESGGGLVQAGGSLRLSCAASGRIFLGNAMGWYRQAPGKERELVAAITNGGGSTYYADSVKGRFTISRDNAKNTVYLQMNSLKPEDTAVYYCAAPVRQSSYTRYDSWGQGTQVTVSS | high polyreactivity
7 | QVQLVESGGGLVQAGGSLRLSCAASGRIFRYYAMGWYRQAPGKERELVAAITAGGGTTYYADSVKGRFTISRDNAKNTVYLQMNSLKPEDTAVYYWAKDGRYYSHYNYWGQGTQVTVSS | high polyreactivity
8 | QVQLVESGGGLVQAGGSLRLSCAASGFTFYAYAMGWYREAPGKERELVATIRRSTGSTYYADSVKGRFTISRDNAKNTVYLQMNSLKQQDTAVYYFATRVWFPITSYDYWGQGTQVTVSS | low polyreactivity
9 | QVHLVESRGGLVQAGGSLRLSCAASGFIFRWYAMGCYRQAPGKERELVAAISSSSGSTYYADSVKGRFTISRDNAKNTVYLQMNSLKPEDTAVYYCAAESNRRFEGEYWGQGTQVTVSS | high polyreactivity
10 | QVQLVESGGGLVQAGGSLRLSCAASGRTFYRNAMGWSRQAPGKEREFVAVISVSGGSTYYADSVKGRFTISRDNAKNTVYLQMISLKPEDTAVYYCAKRGPVRQTANDYWGPGTQVTVSS | low polyreactivity
11 | QVQLVESGGGLVQAGGSLRLSCAASGRTFDRYAMGWYRQAPGKERELVAAITWSGGRTYYADSVKGRFTISRDNAKNTVYLQMNSLKPEDTAVYYCAADDPRDHWYTAMDYWGQGTQVTVSS | low polyreactivity
12 | QVQLVESGGGLVQAGGSLRLSCAASGFTFKYNVMGWYRQAPGKERELVSAISKRGGNTYYADSVKGRFTISRDIAKNTVYLQMNSLKPVDTAVYYCAADPTSPETSGQGYDYWGQGTQVTVSS | high polyreactivity
13 | QVQLVESGGGLVQAGGSLRLSCAASGSIFSPNAMGWYRQAPGKERELVAAITRGGSTYYADSVKGRFTISRDNAKKTVYLQMNSLKPEDTAVYYCAKRSKQFSTQYLYGYWGQGTQVTVSS | low polyreactivity
14 | QVQLVESGGGLVQAGGRLRLSCAASGRIFTYYVMGWYRQAPGKERELVASISGSGGRTYYADSVKGRFTISRDNAKNTVYLQMNSLKPEDTAVYYCATRLYKRTRTITYGYWGQGTQVTVSS | high polyreactivity
15 | QIQLEESGGGLVQAGGSLRLSCAASGSIFSVYAMGWYRQAPGKERELVATISTGGSTYYADSVKGRFTISRDNAKNTVYLQMNSLKPEDTAVYYCNAQFTPRYWGGYDSWGQGTQVTVSS | low polyreactivity
16 | QVQLVESGGGLVQAGGSLRLICAASGITFAVYAMGWYSQAPGKERELVAASSVSGGSTYYADSVKGRFTISRDNAKNTVYLQMNSLKPEATAVYYGAADRYGHFGDWGQGTQVTVSS | high polyreactivity
17 | QVQLVESGGGLVHAGGSLRLSCAASGSTFYGYTMGWYRQAPGKERELVAVITSGGSTYYADSVKGRFTISRDNAKNTVYLQMNSLKPEDTAVYYCAKRYGYPAYGRPWRIGRTYDYWGQGTQVTVSS | low polyreactivity
18 | QVQLVESGGGLVQAGGRLRLSCAASGSIFVPNAMGWYRQALGKDRELVAAITYSGVDTYYADSVMGRFTISRDNAKNTVYLQMNSLKPEDTAVYYCAADNGRVGYDYWGQGTQVSVSS | low polyreactivity
19 | QVQLVESGGGLVQAGGSLRLSCAASGSTLNRYAMGWYRQAPGKERELVAAISISGGRTYYADSVKGRFTISRDNAKNTVYLQMNSLKPEDTAVYYCAADQYYYRYIRTSKYDYWGQGTQVTVSS | high polyreactivity
20 | QVQLVESGGGLVQAGGSLRLSCAASGRIFASNAMGWYRQAPGKERELVAGISRNGGSTFYADSVKGRFTISRDNAKNTVYLQMNSLKPEDTAVYYCARYYTHSGGYRDRIYYYWGQGTQVTVSS | low polyreactivity
21 | QVQLVESGGGLVQAGGSLRLSCAASGFTFHGYTMGWYRQAPGKERELVAAITSGGGTNYADSVKGRFTISRVNAKNTVYLQKNSLKPEDTAVYYCAAVGTVPRKQRYHSYIDYDYWGQGTQVTVSS | low polyreactivity
22 | QVQLVESGGGLVQAGGSLRLSCAASGFTFKAYAMGWYRQAPGKERELVAAITYSGGSTYYADSVKGRFTISRDNAKNTVYLQMNSLKPEDTAVYYCNADSDLDLYWKMDYWGQGTQVTVSS | low polyreactivity

Row | Sequence | polyreactivity (PSR sort gate)
23 | QVQLVESGGGLDQAGGSLRLSCAAAGSIFDYYAMGSYRQAPGKERELVAAISWSGGSTYFADSVKGRFTISRDNAKNTVYLQMNSLKPEDTAVYYCAARGFWGQGTQVTVSS | low polyreactivity
24 | QVQIVESGGGLVQAGGSLRLSCAASGFTLHRNAMGWYRQAPGKERELVANISWTGGSTYYADSVKGRFTISRDNAKNTVYLQMNSLKPEDTAVYYCAARGHWSIYGYYYLGATAFGYWGQGTQVTVSS | low polyreactivity
25 | QDQHVESVGGLVQAGGSLRLSCAASGRTFYRYAMGWSRQAPGKEREFVAAISHGGSNTRYADSVKGRFTISRDNAKNTVYLQMKSLKPEDTAVYYCAARAYQHYNWGQGTQVTVSS | high polyreactivity
26 | QVQLVESGGGLVQAGGSLRLSCAASGSIFDLYDMGWYRQAPGKERELVAAISLIGGSTSYADSVKGRFTISRDNAKNTVYLQMNSLKPEDTAVYYCAVEKFFRAEYDHWGQGTQVTVSS | low polyreactivity
27 | QVQLVESGGGLVQAGGSLRLSCAASGRTFGYYAMGWYRQAPGKERELVAAITDSGDITYYADSVKGRFTISRDNAKNTVYLQMNSLKPEDTAVYYCAADSYEFWSEVYTGESWGQGTQVTVSS | low polyreactivity
28 | QVQLVESGGGLVQAGGSLRLSCAASGFIFVTNAMGWYRQAPGKERELVAAINWSGGRTYYADSVKGRFTISRDNAKNTVYLQMNSLKPEDTAVYYCAADPYARLGEYGYWGQGTQVTVSS | low polyreactivity
29 | QVQLVESGGGLVQAGGSLRLSCAASGSIFFQYAMGWYRQAPGKERELVAAISTGGSTNYADSVKGRFTISRDNAKNTVYLQMNSLKPEETAVYYCAAYSRYKGYQYDYWGQGTQVTVSS | low polyreactivity
30 | QVQLVESCGGLVQAGGSLRLSCAASGRTFPAYAMGWSRQAPGKERELVAAISSSGSRTYYADSVKGRFTISRDNAKNTVYLQMNSLKQEDTAVYYCAARGGRRQKVNRDDYWGQGTQVTVSS | high polyreactivity
31 | QVQLVESGGGLVQAGGSLRLSCAASGFTIASNDMGWYRQAPGKERELVAAITKGGGRTYYADSVKGRFTISRDNAKNTVYLQMNSLKPEDTAVYYCAARQLIKYDYWGQGTQVTVSS | low polyreactivity
32 | QVQLVESGGGLVQAGGSLRLSCAASGSTFVYNAMGWYRQAPGKERELVAAITNSGSTYYADSVKGRFTISRDNAKNTVYLQMNSLKPEDTAVYDCAARSRVYWARSGYWGQGTQVTVAS | low polyreactivity
33 | QVQLVESGGGLVQAGGSLRVSCAASGLTFGDYTMGWYRQAPGKERELVAAISTAGGSTYYADSVKGRFTISREHANNTVYLHMNSLKPEDTAVYYCNARRTHTRSHYYYWGQGTQVTVSS | high polyreactivity
34 | QVQLVESGGGLVQAGGSLRLSCAASGFIFDKYAMGWYRQAPGKERELVATITSGGSTYYADSVKGRFTISRDNAKNTVYLQMNSLKPEDTAVYYCAALDYGYRWYRYYYWGQGTQVTVSS | high polyreactivity
35 | QVQRVESGGGLVQAGGSLRLSCAASGITFRTNTMGWYRQAPGKERELVAAITWDAGSTYYADSVKGRFTISRDNAKHTVYVQMKSLKPEDTAVYYCAARLSYLYGLYPYYYWGQGTQLTVSS | high polyreactivity
36 | QVQLVESGGGLEQAGGSLRLSCAASGLTFSAYVMAWYRLAPGKERELVAAISRRGGSTYYAYSVKGRFTISRDNAKNTVYLQMNSLKPEDTAVYYCAARKVAVRGYGYWGQGTQVTVSS | high polyreactivity
37 | QFQLVESGGGLVQAGGSLRLSCAASGRILYPNTMGWYRQAPGKEREVVAAISGSGSRTYYADSVKGRFTISRDNAKNNVYLQMNSLKPEDTAVYYCADRGDGTVGVSSPGKRRHYYWGQGTQVTVSS | high polyreactivity
38 | QVQLVESGGGLVQAGGSLRLSCAASGFTFGTNAMGWYRQAPGKEMELVAAITWSGGRTYYADSVKGRFTISRDNAKNTVYLQMNSRKQEDTAVYYCAKQYYRNKYEYWGQGTQVTVSS | high polyreactivity
39 | QVQIVESGGGLVQAGGSLRLSCAASGYIFIVYTMGWYRQAPGKERELVAAISSGGITDYADSVKGRFTLSRDNAKNTLYIQMTRLKPEDTAVYYWGQGTQVTVSS | low polyreactivity
40 | QVQLVESGGGLVQAGGSLRLSCAASGRTLGGYAMGWYRQAPGKERELVASITARGGSTYYADSVKGRFTISRDNAKNTVYLQMNSLKPEDTAVYYCNKRTRRTYDYWGQGTQVTVSS | high polyreactivity
41 | QVQLVESGGGLVQAGGSLRLSCAASGRTFKYYAMGWYRQAPGKERELVATITYSGGSTYYADSVKGRFTISRDNAKNTVYLQMNSLKPEDTAVYYCNKVIFLSQSSYSFHYAYDYWGQGTQVTVSS | high polyreactivity
42 | QVQLVESGGGLVQAGGSLRLSCAASGLTFYYYAMGWYRQAPGKERELVASINRSSGSTYYADSVKGRFTISRDNAKNTVYLQMNSLKPEDTAVYYCAVKKHWPHPAYTRYYKYYYWGQGTQVTVSS | high polyreactivity
43 | QVQLVESGGGLVQAGGSLRLSCAASGNIFLYYAMGWYRQAPGKERELVADIDSSGASTYYADSVKGRFTISRDNAKNTVYLEMNSLKPEDTAVYYCAAEFHWWYAGYDYGYWGQGTQVTVSS | low polyreactivity
